# Measurements: the supplement of paper PMC9170038
# Test system: MS2 coat protein
# Assay: apparent KD of MS2 coat protein; higher = weaker reporter binding
# Settings: Eterna round: R107
# Procedure: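 RNA-MaP round R107: designed RNA switches with theophylline, tryptophan, arginine or FMN aptamers are transcribed on-chip within common flanks. They are titrated with SNAP-549-labelled MS2 coat protein in RNA-MaP buffer (100 mM Tris pH 7.5, 80 mM KCl, 4 mM MgCl2), without ligand or with the indicated ligand. Median apparent KD per design.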
# [1] = input ligand: theophylline 20 uM
# [2] = input ligand: theophylline 2 mM
# [3] = input ligand: tryptophan 2.4 mM
Sequence,apparent KD of MS2 coat protein (input ligand: arginine 13.2 mM),apparent KD of MS2 coat protein (input ligand: none),apparent KD of MS2 coat protein [1],apparent KD of MS2 coat protein [2],apparent KD of MS2 coat protein [3]
GGUGGCGUGACGGAUACCAGCCACCACCGUUAGACCACAUGAGGAUCACCCAUGUUGGGUGGCCCUUGGCAGCUGUCGUGCGGCG [#1 Same State - Theophylline B Attempt #18 (HarryS)],140 nM,377 nM,250 nM,113 nM,337 nM
GGAUAGGACGGAAGGAGCGACGUGAGGCUAAUGUCCAGUCUUCUACAUGAGGAUCACCCAUGUCAGGUAGGUCGCCGUCCUAUCG [#21 Exclusion - Arginine B],30.3 nM,28.1 nM,51.7 nM,40.7 nM,41.8 nM
GAGUAGAGGACGGCCGCCACUGAACAUGAGGAUCACCCAUGUCGUGAUCCGUUACCUAGGGUAGAUAGGACCGGGUCAUGUACUC [Exclusion Tryptophan B GF 18],37.2 nM,,68.8 nM,56.7 nM,
AACAUGAGGAUCACCCAUGUGUCCCUUGAUACCAGUCCCAUGUGAGACCCUUGGCAGCAAACAUGAGGAUCACCCAUGUCCCAUG [Same State Theophylline A 3],60.9 nM,,119 nM,,90.2 nM
GGAACAUGAGGAUCACCCAUGUCGAGUGGUCGAGGACCGGUACGGCCGCCACUCGACAUUGCUCAUAGGUAUAGCGUGAGAACGC [Same State - Tryptophan 1],100 nM,326 nM,546 nM,961 nM,618 nM
UGACAUUGCUCAGAUACCAGACAUGAGGAUCACCCAUGUACCAAGGUACCCGAAAGGAAUGUCCCUUGGCAGCUGAGCAAUGUCU [TheoBX 3 #MS2Left #Theo2 #StaticStem],11.7 nM,,11.9 nM,,11 nM
AAACGUUGCUGCGAUACCAGACAUGAGGAUCACCCAUGUACCGAGGUACCCGAAAGGAAUGUCCCUUGGCAGCGCAGCAACGAAA [MAT - Exclusion Theophlline B - Mod of Eli - D24],11.2 nM,11.7 nM,15.3 nM,124 nM,11.7 nM
GGAUGGAACUCGGCCGCCACUGGUGAUCCUAAUGUACAUGAGGAUCACCCAUGUACAUGAGAAGAUAGGACCGGGAGAUAACAUG [V5],23.5 nM,,31.2 nM,29.4 nM,
AUUAAUAGUUGUGAUACCAGACGAACAUGAGGAUCACCCAUGUAACUUUUAGGUGUUGUAGUCCCUUGGCAGCACUAUGUAGUUA [JR_SSTheophyB_Sub013],31.1 nM,,44.5 nM,,32.6 nM
GCCGGUACGUCGGCAAAGCCGAUGUGCCAGCGAGGACCGGUACGGCCGCCACUCGUACAUGAGGAUCACCCAUGUCCGGUCCGGC [Omei Trp SS A C v1],26.7 nM,,62.5 nM,71.8 nM,
GGAUUCAACUCGGCCGCCACUGGUGAUCCUAAUGUACAUGAGGAUCACCCAUGUACAUGAGAAUACAGGACCGGGAGAUAAGCAA [Tryptophan B V2 (+4A)],20.1 nM,,26.5 nM,24 nM,
GGGUGCGGGAUAGAUACCAGUGCCUUAAAAUAGGCACAUGAGGAUCACCCAUGUACCGGGCGCCCUUGGCAGCUAGUACCAUCCA [Edanrele],93.9 nM,,190 nM,,147 nM
GGGCCCGGGCCCGCGCGGGCCCGGGCCCAACGAGGACCGGUACGGCCGCCACUCGAACGAGUGGGUACAUGAGGAUCACCCAUGU [Baa],38.6 nM,30.7 nM,55.9 nM,48.6 nM,33.4 nM
ACAUGAGGAUCACCCAUGUUCCUCUUUGAUACCAGUGAGUUGUUUCGCCCUUGGCAGCGAGUGUUUGUUUUUUUGUUUUGUUUGG [6.S],137 nM,,314 nM,,229 nM
UAUAACAUGAGGAUCACCCAUGUAAGUGAUACCAGAUAAAUAAUAGUCCCUUGGCAGCAUAUUGGGAAAAUGUAUAAUAUAUAUU [Same State - Theophylline A (Freestyle 1)],49.9 nM,,72.1 nM,,49.4 nM
